Patent publication US20250304644A1, “PEPTIDES TRIPLE AGONISTS OF GIP, GLP-1 AND GLP-2” (BAINAN BIOTECH APS, priority 2021, published 2025)
*1 amine or outer side, *2 acyl side, *3 side chain or, on linkers, in order; H or OH if unused. Where no end group is shown, it is not given here. Side-chain parts run from the residue outwards. [ ]: non-standard residue; d: D form. The star is where a group is joined. C18 diacid = O=C(O)CCCCCCCCCCCCCCCCC(=O)*; γGlu = O=C(O)[C@H](CCC(=O)[*:2])N[*:1]; AEEA = NCCOCCOCC(=O)O; Aib = CC(C)(N)C(=O)O

Assays:
human GLP-2R = target: T1, human GLP-2R (Homo sapiens, UniProt O95838); test: cAMP assay (HitHunter) in transiently transfected COS-7 cells expressing human GLP-2R; type: cell-based
T1 construct: host or cells: COS-7
T1 sequence (O95838 1-553): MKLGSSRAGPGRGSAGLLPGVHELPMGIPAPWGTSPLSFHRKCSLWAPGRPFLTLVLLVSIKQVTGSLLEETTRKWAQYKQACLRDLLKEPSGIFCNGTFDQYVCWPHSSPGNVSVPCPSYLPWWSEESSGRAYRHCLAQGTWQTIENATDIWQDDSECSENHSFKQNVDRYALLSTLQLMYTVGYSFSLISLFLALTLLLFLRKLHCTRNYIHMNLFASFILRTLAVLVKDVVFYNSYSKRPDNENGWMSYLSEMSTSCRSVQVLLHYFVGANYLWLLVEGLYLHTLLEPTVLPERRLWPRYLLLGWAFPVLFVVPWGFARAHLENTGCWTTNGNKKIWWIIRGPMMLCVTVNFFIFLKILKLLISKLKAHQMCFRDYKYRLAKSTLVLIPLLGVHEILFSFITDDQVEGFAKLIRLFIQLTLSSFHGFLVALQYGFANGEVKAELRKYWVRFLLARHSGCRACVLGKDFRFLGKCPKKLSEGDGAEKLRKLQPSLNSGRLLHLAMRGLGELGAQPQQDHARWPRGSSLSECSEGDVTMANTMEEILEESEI

human SNAP-tagged GIPR = target: T2, human SNAP-tagged GIPR (Homo sapiens, UniProt P48546); test: Receptor internalization assay, HEK293A cells expressing human SNAP-tagged GIPR; type: cell-based
T2 construct: host or cells: HEK293A
T2 sequence (P48546 22-466): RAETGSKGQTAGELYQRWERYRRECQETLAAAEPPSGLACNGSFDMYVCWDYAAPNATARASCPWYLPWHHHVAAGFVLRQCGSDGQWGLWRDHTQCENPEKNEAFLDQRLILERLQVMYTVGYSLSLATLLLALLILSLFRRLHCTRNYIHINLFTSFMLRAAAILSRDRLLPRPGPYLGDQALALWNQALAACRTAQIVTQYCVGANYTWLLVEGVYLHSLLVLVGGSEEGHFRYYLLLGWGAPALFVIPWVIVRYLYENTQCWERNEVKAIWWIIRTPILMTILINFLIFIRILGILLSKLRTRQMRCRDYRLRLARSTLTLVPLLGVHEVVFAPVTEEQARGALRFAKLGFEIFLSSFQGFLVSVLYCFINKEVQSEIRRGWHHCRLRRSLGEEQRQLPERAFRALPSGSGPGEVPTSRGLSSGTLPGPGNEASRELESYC

human GLP-1R = target: T3, human GLP-1R (Homo sapiens, UniProt P43220); test: cAMP assay (HitHunter) in transiently transfected COS-7 cells expressing human GLP-1R; type: cell-based
T3 construct: host or cells: COS-7

human GIPR = target: T4, human GIPR (Homo sapiens, UniProt P48546); test: cAMP assay (HitHunter) in transiently transfected COS-7 cells expressing human GIPR; type: cell-based; settings: COS-7; normalized to highest concentration of the endogenous ligand; read-out: Efficacy GIPR (Emax)
T4 construct: host or cells: COS-7
T4 sequence (P48546 22-466): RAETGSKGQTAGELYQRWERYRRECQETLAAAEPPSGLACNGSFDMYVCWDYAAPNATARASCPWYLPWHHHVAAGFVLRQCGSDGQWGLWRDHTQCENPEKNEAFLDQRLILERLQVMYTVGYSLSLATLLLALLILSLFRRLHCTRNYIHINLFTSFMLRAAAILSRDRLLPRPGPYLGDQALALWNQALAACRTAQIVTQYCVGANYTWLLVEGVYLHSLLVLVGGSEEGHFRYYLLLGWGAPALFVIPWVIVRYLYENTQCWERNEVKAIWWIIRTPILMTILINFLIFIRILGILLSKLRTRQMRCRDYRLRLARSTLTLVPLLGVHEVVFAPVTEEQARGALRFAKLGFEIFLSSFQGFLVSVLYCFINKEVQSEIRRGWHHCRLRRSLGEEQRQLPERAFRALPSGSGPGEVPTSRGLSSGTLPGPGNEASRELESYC

human SNP-tagged GLP-2R = target: T5, human SNP-tagged GLP-2R (Homo sapiens, UniProt O95838); test: Receptor internalization assay, HEK293A cells expressing human SNAP-tagged GLP-2R; type: cell-based; settings: AUC of sigmoid curves up to 1 μM; 60 minutes at 37° C.
T5 construct: expressed in transfected cells; host or cells: HEK293A
T5 sequence (O95838 1-553): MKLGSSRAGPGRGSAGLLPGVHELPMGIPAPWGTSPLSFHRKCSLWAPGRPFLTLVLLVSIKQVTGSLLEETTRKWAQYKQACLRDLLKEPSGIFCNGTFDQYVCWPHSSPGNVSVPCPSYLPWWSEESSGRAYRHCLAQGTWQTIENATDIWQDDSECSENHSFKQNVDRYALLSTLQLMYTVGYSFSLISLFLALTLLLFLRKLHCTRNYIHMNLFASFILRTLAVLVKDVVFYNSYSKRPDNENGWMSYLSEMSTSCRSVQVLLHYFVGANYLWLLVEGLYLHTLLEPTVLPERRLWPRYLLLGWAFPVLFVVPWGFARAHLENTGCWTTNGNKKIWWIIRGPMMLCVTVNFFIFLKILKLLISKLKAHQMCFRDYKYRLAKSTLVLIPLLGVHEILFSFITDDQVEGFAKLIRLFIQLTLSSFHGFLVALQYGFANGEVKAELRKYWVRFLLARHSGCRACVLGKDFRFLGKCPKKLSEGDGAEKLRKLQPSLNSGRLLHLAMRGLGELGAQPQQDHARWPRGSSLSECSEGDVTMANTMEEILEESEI

[1] = target: human GLP-1R (glucagon-like peptide-1 receptor) (human, UniProt P43220 24-463); test: cell-based or functional assay
[2] = target: T6, human GIPR (glucose-dependent insulinotropic polypeptide receptor) (human, UniProt P48546 22-466); test: cell-based or functional assay
T6 sequence (looked up): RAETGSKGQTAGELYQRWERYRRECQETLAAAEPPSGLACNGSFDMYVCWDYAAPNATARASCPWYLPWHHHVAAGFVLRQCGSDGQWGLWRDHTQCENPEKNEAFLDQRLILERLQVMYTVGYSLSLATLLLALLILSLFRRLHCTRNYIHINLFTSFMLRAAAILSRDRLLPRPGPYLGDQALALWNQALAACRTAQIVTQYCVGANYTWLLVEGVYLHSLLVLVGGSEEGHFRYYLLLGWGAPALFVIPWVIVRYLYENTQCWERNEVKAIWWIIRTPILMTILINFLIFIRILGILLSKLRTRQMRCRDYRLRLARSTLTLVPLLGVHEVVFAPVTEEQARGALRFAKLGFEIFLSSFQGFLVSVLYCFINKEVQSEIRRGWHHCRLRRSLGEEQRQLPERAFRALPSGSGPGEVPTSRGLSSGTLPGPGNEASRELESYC

[3] = target: T7, Human N-terminally SNAP-tagged GIPR (human, UniProt P48546 22-466, SNAP tag labeled with Tag-Lite SNAP-Lumi4-Tb); test: cell-based or functional assay
T7 sequence (looked up): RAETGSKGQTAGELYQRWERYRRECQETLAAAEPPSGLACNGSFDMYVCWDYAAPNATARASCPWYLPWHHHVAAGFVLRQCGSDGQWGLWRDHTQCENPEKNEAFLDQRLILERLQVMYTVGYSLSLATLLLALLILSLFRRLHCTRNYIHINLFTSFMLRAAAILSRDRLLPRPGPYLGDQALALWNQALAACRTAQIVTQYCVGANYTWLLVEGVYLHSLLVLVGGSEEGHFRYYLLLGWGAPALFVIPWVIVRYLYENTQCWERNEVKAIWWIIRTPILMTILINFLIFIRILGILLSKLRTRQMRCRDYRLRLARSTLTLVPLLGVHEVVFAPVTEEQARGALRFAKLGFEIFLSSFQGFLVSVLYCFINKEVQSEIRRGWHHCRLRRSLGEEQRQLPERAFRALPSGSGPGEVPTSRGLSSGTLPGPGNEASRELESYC

[4] = target: T8, human GLP-2R (glucagon-like peptide-2 receptor) (human, UniProt O95838 1-553); test: cell-based or functional assay
T8 sequence (looked up): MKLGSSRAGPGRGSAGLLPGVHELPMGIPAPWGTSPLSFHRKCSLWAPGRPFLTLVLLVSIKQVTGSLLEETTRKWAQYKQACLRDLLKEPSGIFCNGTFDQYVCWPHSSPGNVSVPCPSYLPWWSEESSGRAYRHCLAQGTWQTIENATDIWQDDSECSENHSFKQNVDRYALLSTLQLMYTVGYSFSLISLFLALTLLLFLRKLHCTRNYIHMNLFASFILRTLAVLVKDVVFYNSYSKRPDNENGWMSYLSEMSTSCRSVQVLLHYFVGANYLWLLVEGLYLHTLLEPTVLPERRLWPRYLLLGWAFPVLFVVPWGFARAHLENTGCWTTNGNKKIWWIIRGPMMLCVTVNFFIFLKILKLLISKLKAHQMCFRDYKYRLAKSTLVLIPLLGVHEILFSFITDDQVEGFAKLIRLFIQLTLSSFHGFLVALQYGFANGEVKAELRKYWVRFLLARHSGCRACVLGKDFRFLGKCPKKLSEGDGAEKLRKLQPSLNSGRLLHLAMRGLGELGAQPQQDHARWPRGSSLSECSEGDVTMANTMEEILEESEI

T3 sequence (P43220 24-463): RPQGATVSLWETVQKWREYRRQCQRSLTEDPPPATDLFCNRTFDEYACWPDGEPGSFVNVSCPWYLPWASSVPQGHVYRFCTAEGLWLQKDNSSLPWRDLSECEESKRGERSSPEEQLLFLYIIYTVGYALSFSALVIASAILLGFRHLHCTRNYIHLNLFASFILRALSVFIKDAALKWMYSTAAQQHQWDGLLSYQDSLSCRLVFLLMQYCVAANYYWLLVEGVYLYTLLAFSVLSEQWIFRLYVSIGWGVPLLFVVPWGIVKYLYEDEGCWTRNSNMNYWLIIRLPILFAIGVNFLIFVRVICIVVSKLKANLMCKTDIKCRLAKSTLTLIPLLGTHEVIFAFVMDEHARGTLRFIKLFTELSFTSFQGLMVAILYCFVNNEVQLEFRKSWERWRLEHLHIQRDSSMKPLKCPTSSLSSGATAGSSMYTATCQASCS

HADGTFTSDYST[Aib]LDKLAARDFINWLIQTKGKKNDWKHNITQK([AEEA-AEEA-γGlu-C18 diacid])-OH [Compound 27]
Emax (human GLP-2R; COS-7, normalized to highest concentration of the endogenous ligand, read-out: Efficacy GLP-2R (Emax)): 85%
EC50 (human GLP-2R; cAMP, COS-7 cells, human GLP-2R, read-out: EC50 (nM) GLP-2R): 3.2 nM
Absolute hGIPR internalization (AUC) (human SNAP-tagged GIPR; AUC of sigmoid curves up to 1 μM, 60 minutes at 37° C.): 9.0
GIPR internalization (in words) (human SNAP-tagged GIPR; compared to native GIP): internalization of the GIPR to a higher extent
Relative hGIPR internalization (%) (human SNAP-tagged GIPR; relative to hGIP 1-42 = 100): 24%
Emax (human GLP-1R; COS-7, normalized to highest concentration of the endogenous ligand, read-out: Efficacy GLP-1R (Emax)): 115%
EC50 (human GLP-1R; cAMP, COS-7 cells, human GLP-1R, read-out: EC50 (nM) GLP-1R): 0.05 nM
Emax (human GIPR): 124%

hGLP-1: native human glucagon-like peptide-1, endogenous GLP-1R ligand; which form (1-37, 7-36, 7-37) not stated [reference compound]
Absolute hGLP-2R internalization (AUC) (human SNP-tagged GLP-2R): 48.6

B1: Compound 18 (peptide)
peptide: HADGTFTSDYSTILDNLAAK([AEEA-AEEA-γGlu-C18 diacid])DFINWLIQTKGKK-OH
modifications: N-terminus assumed
SMILES: CC[C@H](C)[C@H](NC(=O)[C@H](Cc1ccccc1)NC(=O)[C@H](CC(=O)O)NC(=O)[C@H](CCCCNC(=O)COCCOCCNC(=O)COCCOCCNC(=O)CC[C@H](NC(=O)CCCCCCCCCCCCCCCCC(=O)O)C(=O)O)NC(=O)[C@H](C)NC(=O)[C@H](C)NC(=O)[C@H](CC(C)C)NC(=O)[C@H](CC(N)=O)NC(=O)[C@H](CC(=O)O)NC(=O)[C@H](CC(C)C)NC(=O)[C@@H](NC(=O)[C@@H](NC(=O)[C@H](CO)NC(=O)[C@H](Cc1ccc(O)cc1)NC(=O)[C@H](CC(=O)O)NC(=O)[C@H](CO)NC(=O)[C@@H](NC(=O)[C@H](Cc1ccccc1)NC(=O)[C@@H](NC(=O)CNC(=O)[C@H](CC(=O)O)NC(=O)[C@H](C)NC(=O)[C@@H](N)Cc1c[nH]cn1)[C@@H](C)O)[C@@H](C)O)[C@@H](C)O)[C@@H](C)CC)C(=O)N[C@@H](CC(N)=O)C(=O)N[C@@H](Cc1c[nH]c2ccccc12)C(=O)N[C@@H](CC(C)C)C(=O)N[C@H](C(=O)N[C@@H](CCC(N)=O)C(=O)N[C@H](C(=O)N[C@@H](CCCCN)C(=O)NCC(=O)N[C@@H](CCCCN)C(=O)N[C@@H](CCCCN)C(=O)O)[C@@H](C)O)[C@@H](C)CC
EC50 (nM) GLP-1R [1]: 0.06 nM
Efficacy GLP-1R [1]: 112
logEC50 GLP-1R [1]: 10.2
Efficacy GIPR [2]: 82
Absolute hGIPR internalization (AUC) [3]: 2.1 AUC

HADGTFTSDYSTILDKLAARDFINWLIQTKGKK([AEEA-AEEA-γGlu-C18 diacid])NDWKHNITQ-OH [Compound 24]
EC50 (nM) GLP-1R [1]: 0.05 nM
Efficacy GLP-1R [1]: 113
logEC50 GLP-1R [1]: 10.3
EC50 (nM) GIPR [2]: 0.398 nM
Efficacy GIPR [2]: 96
pEC50 GIPR [2]: 9.4
Absolute hGIPR internalization (AUC) [3]: 15 AUC
Relative hGIPR internalization (%) [3]: 41%

HADGTFTSDYSTILDKLAARDFINWLIQTKGKKNDWKHNITQK([AEEA-AEEA-γGlu-C18 diacid])-OH [Compound 26]
EC50 (nM) GLP-1R [1]: 0.04 nM
Efficacy GLP-1R [1]: 103
logEC50 GLP-1R [1]: 10.4
EC50 (nM) GLP-2R [4]: 5.6 nM
Efficacy GLP-2R [4]: 112
logEC50 GLP-2R [4]: 8.3
Absolute hGIPR internalization (AUC) [3]: 16.4 AUC
Relative hGIPR internalization (%) [3]: 44%

HXDGTFISDYSTILDNLAARDFINWLIQTKITK (Aib at position 2; K33 acylated with C10, K(C10); C-terminal amide (-NH2)) [Compound 1]
Absolute hGIPR internalization (AUC) [3]: 5.3 AUC
